2 substances from patent publication US20230122503A1, “ANTI-PSMA RADIOCONJUGATES AND USES THEREOF” (Janssen Biotech, Inc., priority 2021, published 2023) can be followed below.

The assay addresses human prostate-specific membrane antigen (PSMA), full length, on cells (human) (UniProt Q04609). Put plainly: cell-based or functional assay.

human prostate-specific membrane antigen (PSMA), full length, on cells (human), sequence (Q04609 whole entry): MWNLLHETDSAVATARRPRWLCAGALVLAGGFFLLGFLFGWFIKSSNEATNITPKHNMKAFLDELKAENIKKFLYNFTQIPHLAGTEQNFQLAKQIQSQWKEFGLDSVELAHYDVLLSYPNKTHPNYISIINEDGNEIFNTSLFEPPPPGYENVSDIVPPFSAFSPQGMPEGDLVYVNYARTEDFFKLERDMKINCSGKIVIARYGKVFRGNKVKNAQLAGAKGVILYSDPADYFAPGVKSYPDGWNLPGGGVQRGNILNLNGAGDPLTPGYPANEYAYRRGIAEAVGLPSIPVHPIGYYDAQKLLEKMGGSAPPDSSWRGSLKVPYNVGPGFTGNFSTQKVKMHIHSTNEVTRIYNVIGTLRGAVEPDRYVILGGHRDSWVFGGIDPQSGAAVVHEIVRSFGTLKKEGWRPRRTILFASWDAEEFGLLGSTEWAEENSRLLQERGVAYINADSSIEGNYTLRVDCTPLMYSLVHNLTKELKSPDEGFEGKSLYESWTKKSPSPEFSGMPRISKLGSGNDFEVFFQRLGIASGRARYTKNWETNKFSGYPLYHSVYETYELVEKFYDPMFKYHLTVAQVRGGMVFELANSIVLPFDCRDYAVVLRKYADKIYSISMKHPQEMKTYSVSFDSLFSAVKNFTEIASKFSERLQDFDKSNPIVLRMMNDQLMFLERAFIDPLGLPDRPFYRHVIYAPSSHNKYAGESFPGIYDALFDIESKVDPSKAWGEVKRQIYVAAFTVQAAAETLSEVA

For “Isotype control conjugated to MMAF (antibody)”, the IC25 (cytotoxicity on 22RV1 cells, MMAF ADC, DAR 4.3, 6 d) is over 0.1 µM.

In the case of “Isotype control conjugated to DX8951 (antibody)”, the IC50 (cytotoxicity on 22RV1 cells, DX8951 ADC, DAR 8, 6 d) was determined as 0.0572 µM.
